Measured values taken from publication PMC8495455, “Discovery of a transdermally deliverable pentapeptide for activating AdipoR1 to promote hair growth” (EMBO Molecular Medicine, 2021).
Values joined by “and” are separate entries in the source; they are usually repeats but may differ in a detail not shown here. Equal entries are not always repeated.

B1: APN: adiponectin protein, positive control (protein, UniProt Q15848 19-244, looked up)
Adiponectin: ETTTQGPGVLLPLPKGACTGWMAGIPGHPGHNGAPGRDGRDGTPGEKGEKGDPGLIGPKGDIGETGVPGAEGPRGFPGIQGRKGEPGEGAYVYRSAFSVGLETYVTIPNMPIRFTKIFYNQQNHYDGSTGKFHCNIPGLYYFAYHITVYMKDVKVSLFKKDKAMLFTYDQYQENNVDQASGSVLLHLEVGDQVWLQVYGEGERNGLYADNDNDSTFTGFLLYHDTN

How the values were obtained:
C57BL/6 (WT) mice [1] = assay: Mouse hair cycle modulation, hair cycle score, WT mice; format: in vivo; conditions: topical
Source text: (§1) First, we topically applied P5 and minoxidil as a positive control (Messenger & Rundegren, [2004]) on wildtype (WT) mouse. […] Overall, the hair cycle score was higher in the P5‐treated mice than vehicle‐treated mice (Fig 4B). […] Collectively, P5 induces anagen hair cycle in vivo.
(§2) For the hair cycle modulation experiment, Adipoq ^−/− (stock #008195; JAX) (Ma et al, [2002]), Adipor1 ^−/− (Yamauchi et al, [2007]; Okada‐Iwabu et al, [2013]), or C57BL/6 (KOATECH) female mice was used (Müller‐Röver et al, [2001]). They were housed (up to four animals per cage; 23 ± 2°C, 8:00–20:00, 12 h/12 h light/dark cycle). Mice were fed a standard chow diet and provided food and water ad libitum. Mice were randomly allocated and shaved dorsally at 7.5 weeks of age. Only mice in telogen were included for the further experiments (Müller‐Röver et al, [2001]). From 8 weeks of age, the shaved dorsal area was treated with vehicle control (ethanol and polyethylene glycol, 30% and 70% v/v), P5 (0.1 mM), or minoxidil (3%) every day. The mouse hair growth score (a value from 0 to 100 based on the skin pigmentation and hair shaft density) was monitored and documented at designated days with the experimenters being blind to the conditions, following a previous study (Chai et al, [2019]). A higher score corresponds to a transition from telogen to anagen. On day 35, we obtained dorsal cutaneous tissue for histological analysis: anagen induction scores (calculated using an assigned arbitrary score; telogen = 1, anagen I–VI = 2–7) (Müller‐Röver et al, [2001]).

C57BL/6 (WT) mice [2] = assay: Mouse hair cycle modulation, histology and anagen induction score, WT mice; format: in vivo
Source text: as §1
(§3) Paraffin‐embedded mouse cutaneous back tissue was sectioned (4 μm thickness) and stained with hematoxylin and eosin. For IF staining, human ORS cells cultured in FiTC‐P5, sectioned paraffin‐embedded human HFs (7 μm thickness), and sectioned paraffin‐embedded mouse cutaneous dorsal tissue or human skin tissue (5 μm thickness) were incubated at 4°C overnight with the following primary antibodies diluted in the diluent reagent (Invitrogen): phospho‐AMPK (#2535, 1:100; Cell Signaling), Ki‐67 (#M7240, 1:200; Dako), versican (#ab177480, 1:200; Abcam), or AdipoR1 antibody (#ab126611, 1:200; Abcam). After three washes with PBS, the slides were incubated with the secondary Alexa Fluor 488‐labeled anti‐mouse or rabbit IgG antibody (#ab150077, #ab150113, 1:200; Invitrogen), or Alexa Fluor 594‐labeled anti‐rabbit IgG antibody (#a11012, 1:200; Invitrogen) at 25°C for 1 h. Nuclei were counterstained with 4′,6‐diamidino‐2‐phenylindole (DAPI; #D1306, 1:1,000; Invitrogen). Microscopic observations were performed with a Nikon Eclipse Ci‐L microscope (Nikon). IF intensity was observed and recorded with a Nikon Eclipse Ni‐E fluorescence microscope (Nikon).
as §2

[3] = system: AMPK phosphorylation in ORS cells; assay: Western blot p-AMPK, ORS cells; format: cell-based, human; conditions: P5 0 - 50 μM, APN 2.5 μg/ml
Source text: (§4) Following the confirmation of the molecular interaction between AdipoR1 and P5, we evaluated the activation of the intracellular signaling pathway by P5. We investigated whether APN treatment on ORS and DP cells could activate AMPK or ERK signaling pathways, which are previously known to be downstream effectors of AdipoR1 (Mao et al, [2006]; Deepa & Dong, [2009]; Shibata et al, [2012]). […] Next, for determination of whether both P5 and APN mediates the phosphorylation of AMPK through AdipoR1 in ORS and DP cells, the cells were transfected with AdipoR1 siRNA (Appendix Fig S1). […] Collectively, P5 activates AMPK signaling pathway through AdipoR1 in ORS and DP cells in vitro.
(§5) Human ORS and DP cells or skin tissue were lysed (RIPA lysis buffer; #20‐188; Merck Millipore). The obtained protein was then separated by 8% SDS–PAGE and transferred to a polyvinylidene fluoride membrane (Amersham). The protein transferred membranes were incubated overnight with the specific antibodies. […] Antibody‐antigen complexes detected by enhanced chemiluminescent substrate (Thermo Fisher) were captured and quantified by Amersham imager 680 systems (GE Healthcare).

[4] = system: AMPK phosphorylation in DP cells; assay: Western blot p-AMPK, DP cells; format: cell-based, human; conditions: P5 0 - 50 μM, APN 2.5 μg/ml
Source text: as §4, §5

[5] = system: ERK phosphorylation in ORS cells; assay: Western blot p-ERK1/2, ORS cells; format: cell-based, human
Source text: as §4, §5

[6] = system: ERK phosphorylation in DP cells; assay: Western blot p-ERK1/2, DP cells; format: cell-based, human
Source text: as §4, §5

[7] = system: AMPK phosphorylation through AdipoR1 in ORS cells; assay: Western blot p-AMPK in AdipoR1 siRNA-transfected ORS cells; format: cell-based, human
Source text: as §4
(§6) All transfections were performed using Lipofectamine 2000 following the manufacturer’s instructions (#11668019; Thermo Fisher). Human DP and ORS cells were cultured without antibiotics until reaching 50% confluency. AdipoR1 or scrambled siRNA (Bioneer) was used. The culture medium was changed 6 h after transfection, and the cells were incubated for another 24 h before subsequent analyses.
(§7) Human ORS and DP cells or skin tissue were lysed (RIPA lysis buffer; #20‐188; Merck Millipore). […] Antibody‐antigen complexes detected by enhanced chemiluminescent substrate (Thermo Fisher) were captured and quantified by Amersham imager 680 systems (GE Healthcare).

[8] = system: AMPK phosphorylation through AdipoR1 in DP cells; assay: Western blot p-AMPK in AdipoR1 siRNA-transfected DP cells; format: cell-based, human
Source text: as §4, §6, §7

[9] = system: matrix cells of human HF bulbs; assay: IF staining Ki-67 of ex vivo cultured HF bulb; format: cell-based; conditions: APN 10μg/ml, ex vivo cultured HF bulb; individual HFs, n = 8
Source text: We next investigated whether P5 can reproduce the effects of APN on hair growth promotion ex vivo (Won et al, [2012]) using ex vivo human HF organ culture model. […] The Ki‐67‐positive cell portion of the matrix area in the P5‐treated HFs was higher than that in the vehicle‐treated group (Fig 3E).
as §3

human scalp HFs = conditions: ref Won et al, [2012]; cited from earlier work
Source text: However, it is not well understood about the underlying action mechanism of APN on hair growth promotion and how to utilize this endogenous protein as clinically applicable drug forms (Otvos, [2019]).

Row | Molecule | Gross morphology of dorsum (C57BL/6 (WT) mice [1]; day 14) | Gross morphology of dorsum (C57BL/6 (WT) mice [1]; day 35) | Histological examination of HFs (C57BL/6 (WT) mice [2]; H&E) | Anagen induction scores vs vehicle (C57BL/6 (WT) mice [2]; One-way ANOVA with Tukey's test) | Phosphorylation of AMPK, ORS cells [3] | Phosphorylation of AMPK, DP cells [4] | Phosphorylation of ERK, ORS cells [5] | Phosphorylation of ERK, DP cells [6] | p-AMPK intensity after AdipoR1 siRNA transfection, ORS cells [7] | p-AMPK intensity after AdipoR1 siRNA transfection, DP cells [8] | Numbers of Ki-67-positive cells normalized to DAPI-stained cells [9] | Hair growth ex vivo (human scalp HFs)
1 | Nc1cc(N2CCCCC2)nc(N)[n+]1[O-] [minoxidil, reference compound] | obvious pigmentation and hair | manifested a black hair coat | anagen HFs were noticeable | significantly higher |  |  |  |  |  |  |  | 
2 | B1 |  |  |  |  | phosphorylation of AMPK was observed | phosphorylation of AMPK was observed | no effect on the phosphorylation of ERK | no effect on the phosphorylation of ERK | intensity was reduced | intensity was reduced | 0.29 and 0.31 and 0.23 and 0.25 and 0.22 and 0.21 and 0.35 and 0.28 | promotes hair growth ex vivo effectively
